Experimental data taken from patent publication US10239925B2, “Peptides and combination of peptides for use in immunotherapy against ovarian cancer and other cancers” (IMMATICS BIOTECHNOLOGIES GMBH, priority 2015, dated 2019).

Biological target: HLA-A*02:01 (Homo sapiens, UniProt P04439, D140Y/D185E/D98H/E176V/E277Q/G131W/G231S/I119V/I121R/I166T/I218V/L300P/L318F/N151K/N90K/P208A/P217A/Q86G/Q94H/R138H/R169H/T345S)
Experiment: MHC binding assay (UV-ligand exchange, anti-β2m ELISA, peptide exchange yield)
Settings: binding to HLA-A*02:01
Method in brief: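 Yield of stabilized complexes quantified via the β2m light chain in an ELISA (streptavidin capture, 100-fold diluted monomers, HRP anti-β2m 2 ug/ml at 37 °C, TMB, A450). The complexes come from UV-triggered replacement of a photocleavable ligand by the candidate peptide.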

**Q.** For “606 (ALWETEVYI; listed as Homo sapiens) [compound 606]”, which “Peptide exchange (MHC class I binding score, peptide exchange yield)” value (“Peptide exchange” below) is on record?
**A.** “+++” (>50 = +++)

**Q.** Which “Peptide exchange” value does the source give for “385 (SLLEQGLVEA; listed as Homo sapiens) [compound 385]” here?
**A.** “++” (>20% = ++)

**Q.** With “130 (FLWNGEDSALL; listed as Homo sapiens) [compound 130]” as the substance, how does the “Peptide exchange” value read?
**A.** “+++” (>50 = +++)

**Q.** With “398 (KLLEEDGTIITL; listed as Homo sapiens) [compound 398]” as the substance, how does the “Peptide exchange” value read?
**A.** “++” (>20% = ++)

**Q.** With “582 (TLCDVILMV; listed as Homo sapiens) [compound 582]” as the substance, how does the “Peptide exchange” value read?
**A.** “+++” (>50 = +++)

**Q.** With “509 (FLFDTKPLIV; listed as Homo sapiens) [compound 509]” as the substance, how does the “Peptide exchange” value read?
**A.** “+++” (>50 = +++)

**Q.** “333 (FLPDANSSV; listed as Homo sapiens) [compound 333]” was tested. Which “Peptide exchange” value did it give?
**A.** “++” (>20% = ++)

**Q.** How did the “Peptide exchange” value turn out when “457 (SLLPGNLVEKV; listed as Homo sapiens) [compound 457]” was run?
**A.** “+++” (>50 = +++)

**Q.** “556 (FLTDLEDLTL; listed as Homo sapiens) [compound 556]” was tested. Which “Peptide exchange” value did it give?
**A.** “+++” (>50 = +++)

**Q.** How did the “Peptide exchange” value turn out when “224 (TLIDAQWVL; listed as Homo sapiens) [compound 224]” was run?
**A.** “+++” (>50 = +++)

**Q.** For “344 (YLQDQHLLLTV; listed as Homo sapiens) [compound 344]”, which “Peptide exchange” value is on record?
**A.** “+++” (>50 = +++)

**Q.** With “488 (FLAEDPKVTL; listed as Homo sapiens) [compound 488]” as the substance, how does the “Peptide exchange” value read?
**A.** “+++” (>50 = +++)

**Q.** How did the “Peptide exchange” value turn out when “206 (VLQEGKLQKLAQL; listed as Homo sapiens) [compound 206]” was run?
**A.** “+++” (>50 = +++)

**Q.** For “149 (NLLELFVQL; listed as Homo sapiens) [compound 149]”, which “Peptide exchange” value is on record?
**A.** “+++” (>50 = +++)

**Q.** How did the “Peptide exchange” value turn out when “564 (TVTNAVVTV; listed as Homo sapiens) [compound 564]” was run?
**A.** “+++” (>50 = +++)

**Q.** “434 (KVSNSGITRV; listed as Homo sapiens) [compound 434]” was tested. Which “Peptide exchange” value did it give?
**A.** “++” (>20% = ++)

**Q.** “174 (ALAQYLITA; listed as Homo sapiens) [compound 174]” was tested. Which “Peptide exchange” value did it give?
**A.** “+++” (>50 = +++)

**Q.** How did the “Peptide exchange” value turn out when “324 (FLYDEIEAEV; listed as Homo sapiens) [compound 324]” was run?
**A.** “+++” (>50 = +++)

**Q.** How did the “Peptide exchange” value turn out when “220 (LLQKFVPEI; listed as Homo sapiens) [compound 220]” was run?
**A.** “++” (>20% = ++)

**Q.** With “594 (IMLKGDNITL; listed as Homo sapiens) [compound 594]” as the substance, how does the “Peptide exchange” value read?
**A.** “+++” (>50 = +++)

**Q.** For “271 (LVYPLELYPA; listed as Homo sapiens) [compound 271]”, which “Peptide exchange” value is on record?
**A.** “+++” (>50 = +++)

**Q.** With “116 (YHIDEEVGF; listed as Homo sapiens) [compound 116]” as the substance, how does the “Peptide exchange” value read?
**A.** “+” (>10% = +)

**Q.** “330 (QLALKVEGV; listed as Homo sapiens) [compound 330]” was tested. Which “Peptide exchange” value did it give?
**A.** “+++” (>50 = +++)

**Q.** “451 (LLLLDTVTMQV; listed as Homo sapiens) [compound 451]” was tested. Which “Peptide exchange” value did it give?
**A.** “++” (>20% = ++)

**Q.** With “635 (SLDSTLHAV; listed as Homo sapiens) [compound 635]” as the substance, how does the “Peptide exchange” value read?
**A.** “+++” (>50 = +++)

**Q.** For “73 (NIFDLQIYV; listed as Homo sapiens) [compound 73]”, which “Peptide exchange” value is on record?
**A.** “+++” (>50 = +++)

**Q.** With “146 (SLATAGDGLIEL; listed as Homo sapiens) [compound 146]” as the substance, how does the “Peptide exchange” value read?
**A.** “++” (>20% = ++)

**Q.** “379 (IMEGTLTRV; listed as Homo sapiens) [compound 379]” was tested. Which “Peptide exchange” value did it give?
**A.** “++” (>20% = ++)

**Q.** How did the “Peptide exchange” value turn out when “232 (ALLEAQDVELYL; listed as Homo sapiens) [compound 232]” was run?
**A.** “++” (>20% = ++)

**Q.** Which “Peptide exchange” value does the source give for “212 (ALWDQDNLSV; listed as Homo sapiens) [compound 212]” here?
**A.** “++” (>20% = ++)

**Q.** With “371 (FLQAHLHTA; listed as Homo sapiens) [compound 371]” as the substance, how does the “Peptide exchange” value read?
**A.** “++++” (>75% = ++++)

**Q.** How did the “Peptide exchange” value turn out when “374 (FLLQQHLISA; listed as Homo sapiens) [compound 374]” was run?
**A.** “++” (>20% = ++)

**Q.** “62 (VLLDVSAGQLLM; listed as Homo sapiens) [compound 62]” was tested. Which “Peptide exchange” value did it give?
**A.** “++++” (>75% = ++++)

**Q.** With “64 (YAAPGGLIGV; listed as Homo sapiens) [compound 64]” as the substance, how does the “Peptide exchange” value read?
**A.** “++” (>20% = ++)

**Q.** Which “Peptide exchange” value does the source give for “185 (FLIDDKGYTL; listed as Homo sapiens) [compound 185]” here?
**A.** “++” (>20% = ++)

**Q.** For “405 (ALYDVFLEV; listed as Homo sapiens) [compound 405]”, which “Peptide exchange” value is on record?
**A.** “++” (>20% = ++)

**Q.** With “600 (ALAAPDIVPAL; listed as Homo sapiens) [compound 600]” as the substance, how does the “Peptide exchange” value read?
**A.** “+++” (>50 = +++)

**Q.** How did the “Peptide exchange” value turn out when “543 (GLLPTPITQQASL; listed as Homo sapiens) [compound 543]” was run?
**A.** “+++” (>50 = +++)

**Q.** Which “Peptide exchange” value does the source give for “353 (YLFEMDSSL; listed as Homo sapiens) [compound 353]” here?
**A.** “++” (>20% = ++)

**Q.** Which “Peptide exchange” value does the source give for “75 (GLLEVMVNL; listed as Homo sapiens) [compound 75]” here?
**A.** “+++” (>50 = +++)

**Q.** With “567 (SLLPLDDIVRV; listed as Homo sapiens) [compound 567]” as the substance, how does the “Peptide exchange” value read?
**A.** “+++” (>50 = +++)

**Q.** Which “Peptide exchange” value does the source give for “10 (FLATFPLAAV; listed as Homo sapiens) [compound 10]” here?
**A.** “++++” (>75% = ++++)

**Q.** “610 (LLAPTPYIIGV; listed as Homo sapiens) [compound 610]” was tested. Which “Peptide exchange” value did it give?
**A.** “+++” (>50 = +++)

**Q.** For “207 (GLTSTNAEV; listed as Homo sapiens) [compound 207]”, which “Peptide exchange” value is on record?
**A.** “++” (>20% = ++)

**Q.** “24 (SLSDGLEEV; listed as Homo sapiens) [compound 24]” was tested. Which “Peptide exchange” value did it give?
**A.** “++” (>20% = ++)

**Q.** For “615 (VLPPDTDPA; listed as Homo sapiens) [compound 615]”, which “Peptide exchange” value is on record?
**A.** “++” (>20% = ++)

**Q.** Which “Peptide exchange” value does the source give for “387 (ALFQATAEV; listed as Homo sapiens) [compound 387]” here?
**A.** “++++” (>75% = ++++)

**Q.** For “164 (ALLPQPKNLTV; listed as Homo sapiens) [compound 164]”, which “Peptide exchange” value is on record?
**A.** “+++” (>50 = +++)

**Q.** With “586 (KLKPGDLVGV; listed as Homo sapiens) [compound 586]” as the substance, how does the “Peptide exchange” value read?
**A.** “+++” (>50 = +++)

**Q.** For “42 (VLLQKIVSA; listed as Homo sapiens) [compound 42]”, which “Peptide exchange” value is on record?
**A.** “+++” (>50 = +++)

**Q.** With “131 (FVPPVTVFPSL; listed as Homo sapiens) [compound 131]” as the substance, how does the “Peptide exchange” value read?
**A.** “++” (>20% = ++)

**Q.** For “197 (ALGPEGGRV; listed as Homo sapiens) [compound 197]”, which “Peptide exchange” value is on record?
**A.** “++” (>20% = ++)

**Q.** How did the “Peptide exchange” value turn out when “376 (AMFESSQNVLL; listed as Homo sapiens) [compound 376]” was run?
**A.** “++” (>20% = ++)

**Q.** “169 (NLPEYLPFV; listed as Homo sapiens) [compound 169]” was tested. Which “Peptide exchange” value did it give?
**A.** “+++” (>50 = +++)

**Q.** Which “Peptide exchange” value does the source give for “249 (LLDGFLVNV; listed as Homo sapiens) [compound 249]” here?
**A.** “+++” (>50 = +++)

**Q.** Which “Peptide exchange” value does the source give for “346 (LLDSKVPSV; listed as Homo sapiens) [compound 346]” here?
**A.** “+++” (>50 = +++)

**Q.** With “92 (YLIPFTGIVGL; listed as Homo sapiens) [compound 92]” as the substance, how does the “Peptide exchange” value read?
**A.** “++” (>20% = ++)

**Q.** For “63 (YLLPSGGSVTL; listed as Homo sapiens) [compound 63]”, which “Peptide exchange” value is on record?
**A.** “++” (>20% = ++)

**Q.** “473 (AMATESILHFA; listed as Homo sapiens) [compound 473]” was tested. Which “Peptide exchange” value did it give?
**A.** “+++” (>50 = +++)

**Q.** Which “Peptide exchange” value does the source give for “179 (KVLNELYTV; listed as Homo sapiens) [compound 179]” here?
**A.** “+++” (>50 = +++)

**Q.** With “209 (KLIESKHEV; listed as Homo sapiens) [compound 209]” as the substance, how does the “Peptide exchange” value read?
**A.** “++” (>20% = ++)

**Q.** How did the “Peptide exchange” value turn out when “147 (SLLEAVSFL; listed as Homo sapiens) [compound 147]” was run?
**A.** “+++” (>50 = +++)

**Q.** For “347 (SLFKHDPAAWEA; listed as Homo sapiens) [compound 347]”, which “Peptide exchange” value is on record?
**A.** “++++” (>75% = ++++)

**Q.** Which “Peptide exchange” value does the source give for “187 (RQISIRGIVGV; listed as Homo sapiens) [compound 187]” here?
**A.** “+++” (>50 = +++)

**Q.** Which “Peptide exchange” value does the source give for “239 (AAFAGKLLSV; listed as Homo sapiens) [compound 239]” here?
**A.** “+++” (>50 = +++)

**Q.** With “257 (SIFSAFLSV; listed as Homo sapiens) [compound 257]” as the substance, how does the “Peptide exchange” value read?
**A.** “+++” (>50 = +++)

**Q.** For “560 (ALWDIETGQQTTT; listed as Homo sapiens) [compound 560]”, which “Peptide exchange” value is on record?
**A.** “+++” (>50 = +++)
